Biological target: T1, APRIL (Acro Biosystems, Cat: APL-H52D1) (UniProt O75888 115-250, limits assumed)
T1 construct: also called ARPIL
T1 sequence (looked up): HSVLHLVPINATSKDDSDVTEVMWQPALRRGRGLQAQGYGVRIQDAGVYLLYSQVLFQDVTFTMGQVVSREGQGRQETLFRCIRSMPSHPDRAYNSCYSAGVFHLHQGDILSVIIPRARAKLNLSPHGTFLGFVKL
Assay: ELISA, APRIL coated at 1 ug/mL, anti-human Fc-HRP, OD450
Description: The capabilities of fusion proteins B606401, B637302, B746201, and B805201 to bind to BAFF and APRIL were assessed by ELISA as follows:
BAFF (PeproTech, Cat: 310-13) or ARPIL (Acro Biosystems, Cat: APL-H52D1) was diluted to 1 μg/mL with PBS, and a 96-well plate was coated with the dilution overnight at 4° C. The plate was washed with PBST and blocked with Blocking Buffer (PBST containing 1% BSA) at 37° C. for 1 h. The plate was tapped. The test antibodies were diluted with Blocking Buffer. Incubation was performed at 37° C. for 1.5 h. The plate was washed with PBST. An HRP-mouse anti-human Fc antibody (GenScript, Cat: A01854-200) was diluted with Blocking Buffer. Incubation was performed at 37° C. for 40 min. The plate was washed with PBST. 100 μL of TMB substrate solution (Biopanda, Cat: TMB-S-003) was added, and color development was performed at 37° C. for 3 min. 100 μL of ELISA stop solution (Solarbio, Cat: C1058) was added. OD450 was measured.

EC50: 0.536 nM
Emax: 2.98
B1: Telitacicept (RCT-18) (Fc fusion)
chain: SRVDQEERFPQGLWTGVAMRSCPEEQYWDPLLGTCMSCKTICNHQSQRTCAAFCRSLSCRKEQGKFYDHLLRDCISCASICGQHPKQCAYFCENKLRSPVNLPPELDKTHTCPPCPAPEAEGAPSVFLFPPKPKDTLMISRTPEVTCVVVDVSHEDPEVKFNWYVDGVEVHNAKTKPREEQYNSTYRVVSVLTVLHQDWLNGKEYKCKVSNKALPSSIEKTISKAKGQPREPQVYTLPPSRDELTKNQVSLTCLVKGFYPSDIAVEWESNGQPENNYKTTPPVLDSDGSFFLYSKLTVDKSRWQQGNVFSCSVMHEALHNHYTQKSLSLSPGK
notes: Positive control TACI-Fc; also called RC18

From patent publication US20260056186A1 (JIANGSU HENGRUI PHARMACEUTICALS, published 2026)
